Experimental data from patent publication US20200164068A1, “MODULATORS OF TUMOR IMMUNE RESISTANCE FOR THE TREATMENT OF CANCER” (DEUTSCHES KREBSFORSCHUNGSZENTRUM STIFTUNG DES ÖFFENTLICHEN …, priority 2016, published 2020).

B1: CCR9-specific shRNA (nucleic acid)
DNA: ACCGGGCCAGTGGAGGTCTTTGTTCTGTTAATATTCATAGCAGAACAAGGACCTTCACTGGCTTTT

Columns and labels:
MCF7 cells = experiment: Chromium-release cytotoxicity assay, MCF7 cells and survivin-specific CTL; format: cell-based; settings: MCF7 cells pre-treated with 250 ng/ml PTX for 1 h, compared to CCR9 gene knockdown
Description: (§1) Tumor cells were transfected with the described siRNAs using RNAiMAX or with pCMV6-AC-His-CCR9 encoding vector and empty control vector (OriGene, Rockville, USA) using TransIT-LT1. 72 h later, transfected cells were harvested for chromium-release cytotoxicity assay as detailed in Supplementary Methods. For CCR9 blockade using pertussis toxin (PTX), […] tumor cells were incubated with 250 ng/ml of PTX (Sigma Aldrich) for 1 h at 37° C. before labeling with radioactive chromium.

CCR9+ tumor cells = experiment: Transwell migration assay toward CCL25; format: cell-based
HLA-A2 = experiment: Surface HLA-A2 expression on M579-A2 cells; format: cell-based, human; settings: M579-A2 upon CCR9 knockdown
M579-A2 tumor cells = experiment: Chromium-release cytotoxicity assay, M579-A2 melanoma cells and TIL 209; format: cell-based, human; settings: stable CCR9 knockdown M579-A2 versus shControl
From the text: MCF7, MDA-MB-231 (breast cancer), and PANC-1 pancreatic cancer cells were acquired from American Type Cell Culture (Wesel, Germany). MCF7luc cells were generated by electroporation with pEGFP-Luc plasmid and expansion of sorted GFP+ clones in selection medium containing […] G418 (Gibco, UK). M579-A2 melanoma culture was established from a patient and stably transfected with HLA-A2 expression construct as described before (Machlenkin et al, 2008). For stable CCR9 knockdown, lentiviral particles were produced using the pRSI9-U6-TagRFP-2APuro lentiviral expression vector (Cellecta) that contained either the CCR9-specific shRNA hairpin ([…]: SEQ ID NO. 5) or control nontargeting shRNA. Viruses were packaged using the psPAX2 and pMD2.G packaging plasmids (Addgene), and tumor cell lines were transduced with the viral particles as per the manufacturer's protocol.
as §1

CCL25 = experiment: ELISA of CCL25 levels in tumor cell lysates; format: cell-based; settings: stable knockdown
M579-A2 tumors = experiment: In vivo M579-A2 tumor growth in NSG mice with adoptive TIL 209 transfer
Description: Appropriate approval for animal work was obtained from the regulatory authorities (Regierungsprasidium, Karlsruhe) before the start of the experiment. Four- to six-week-old female NSG mice were ordered from the Animal Core Facility at DKFZ, Heidelberg. Mice were subcutaneously injected with 5×10^5 cells (in 100 μl of matrigel per injection) of each CCR9-M579-A2 (transduced with CCR9-specific shRNA) and CCR9+M579-A2 (transduced with non-targeting control shRNA) cell lines in the left and the right flank, respectively. Following this, at Day 2 and Day 9, 7 out of the 10 tumor-bearing mice received adoptive transfer of expanded TIL 209 cells intravenously into the tail vein (1×10^7 cells/100 μl PBS/mouse). The remaining three mice were injected with PBS alone to assess tumor growth in the absence of adoptive TIL transfer. Tumor measurements were performed using a digital caliper (Carl Roth) at the indicated time points, and tumor volume was measured using the formula: volume=height*width*width*(n/3).
Differences between test and control groups were analyzed by two-sided Student's t-test. In all statistical tests, a P-value <0.05 was considered significant. Statistical difference between the tumor growth curves in vivo was assessed using the unpaired one-sided Mann-Whitney U-test.

Molecule	Tumor lysis by antigen-specific T cells (MCF7 cells)	Migration of CCR9+ tumor cells toward CCL25 (CCR9+ tumor cells)	Surface HLA-A2 expression (HLA-A2)	Immune lysis by tumor-infiltrating lymphocytes (TIL 209) (M579-A2 tumor cells)	CCL25 production by MCF7 breast cancer cells (CCL25)	Tumor growth kinetic without T cell transfer (M579-A2 tumors; CCR9- versus CCR9+ M579-A2 tumors in NSG mice given PBS alone)	Tumor growth in response to adoptive T cell transfer (M579-A2 tumors; CCR9- versus CCR9+ M579-A2 tumors s.c. in NSG mice, TIL 209 i.v. at Day 2 and Day 9)
pertussis toxin	did not elicit elevated tumor lysis	inhibited the migration					
B1			no significant difference	more susceptible to immune lysis	did not affect	No difference	grew significantly slower
